# Experiment: soluble on expression in E. coli; label from the status in PepcDB or PDB records
row,Sequence,soluble on expression in E. coli
1,AEEHEHHHHDEEHAHHHHHEGSEVDEYGISTFVYYRRPAFDIHKFDRFVSTQWSRNIIRAKGVCYFSNNRDMSFLFEQAGVQKKLKEAGLWYATAPEEELIEVIRQEPGLLRDWDDKYGDRMQKIVFIGRHLDKEELIRELDECLE,not soluble
2,MEERELVEYFRGQIREDPDVASAVAAIRSLLEFLKRDQSETILGLRENMTQAIHRLQEADPSVAVSSGGELFLRFISLTSLEHPDLSQCKNVMIERGELFLKKISLSRGKVGKLCHTFIKDGAKILTHSSSRVVLKVLENAAADNKRFTVKLMAEKLRKLSIPVTVVLDAAVGYILEKVDLVIVGAEGVVESGGVINKIGTYQMAVCSKAHNKPFYVVAESFKFVRLYPLNQQDVPDRFKYKADVLKTAEDLNQEHPLIDYTPSSLITLLFTDLGVLTPSAVSDELIKLYL,soluble
3,MNTTVEKQQIITSNTEQWKMYSKLEGKEYQIHISKPKQPAPDSGYPVIYVLDGNAFFQTFHEAVKIQSVRAEKTGVSPAIIVGVGYPIEGAFSGEERCYDFTPSVISKDAPLKPDGKPWPKTGGAHNFFTFIEEELKPQIEKNFEIDKGKQTLFGHSLGGLFALHILFTNLNAFQNYFISSPSIWWNNKSVLEKEENLIIELNNAKFETGVFLTVGSLEREHMVVGANELSERLLQVNHDKLKFKFYEAEGENHASVVPTSLSKGLRFISYV,soluble
4,MGSDKIHHHHHHMKVLLYLEAENYLRKSGIGRAIKHQAKALSLVGQHFTTNPRETYDLVHLNTYGLKSWLLMIKAQKAGKKVIMHGHSTEEDFRNSFIFSNLLSPWFKKYLCHFYNKADAIITPTLYSKSLIESYGVKSPIFAVSNGIDLEQYGADPKKEAAFRRYFDIKEGEKVVMGAGLFFLRKGIDDFVKVAQAMPDVRFIWFGETNKWVIPAQVRQMVNGNHPKNLIFPGYIKGDVYEGAMTGADAFFFPSREETEGIVVLEALASRQHLVLRDIPVYYGWVDQSSAELATDIPGFIEALKKVFSGASNKVEAGYKVAQSRRLETVGHALVDVYKKVMEL,not soluble
5,SSSGLNSEKVAALIQKLNSDPQFVLAQNVGTTHDLLDICLKRATVQRAQHVFQHAVPQEGKPITNQKSSGRCWIFSCLNVMRLPFMKKLNIEEFEFSQSYLFFWDKVERCYFFLSAFVDTAQRKEPEDGRLVQFLLMNPANDGGQWDMLVNIVEKYGVIPKKCFPESYTTEATRRMNDILNHKMREFCIRLRNLVHSGATKGEISATQDVMMEEIFRVVCICLGNPPETFTWEYRDKDKNYQKIGPITPLEFYREHVKPLFNMEDKICLVNDPRPQHKHNKLYTVEYLSNMVGGRKTLYNNQPIDFLKKMVAASIKDGEAVWFGCDVGKHFNSKLGLSDMNLYDHELVFGVSLKNMNKAERLTFGESLMTHAMTFTAVSEKDDQDGAFTKWRVENSWGEDHGHKGYLCMTDEWFSEYVYEVVVDRKHVPEEVLAVLEQEPIILPAWDPMGALA,soluble
6,MGSDKIHHHHHHSCDDDGYSIGDIGWDWATVRATGGGGYYLEGDRWGMIDPVASSIPWYKPVDGERVVAFFNPLADTDKGAQVKIEGIQEVLTKEVEDMTAENEEEFGNDPIVIYQGDMWLGGKFLNIIFHQYLPRSEKHRISLVQNKIEPEAPETPEALNVDEDGYIHLELRYNTYDDVTGYRGWGRVSYNLEEFYPTAKDAAETEFKGFKVTINSKENGEGRVIVLDLDHPVGVPEKAKDVHSTSFVK,not soluble
7,QPKPEEKLTNNIILKKLQIALNLKADEVLDLLKLVNFRLSKHELSAFFRKPDHKHYRVCKDQVLRNFLQAVQQNLRG,not soluble
8,MGSDKIHHHHHHMDKPMTENPVHPAEAGPSGPADAAGKAPGLAAVESRQRMRDGTELLLRTWEPDPCMFPETVGCVLLVHGLAEHCGRYQHVAEVLCGLGLRVRAYDQRGHGASGGARMVAEHPDAYLNDLVEIHDAAVRVWKELPILLGHSMGGLVAARFATARLRPVRALVLSSPALALRLSPTMLTIHRVLLTLAPRLRVPNPIDARMLSHDAHVVARYRADPLVQTTITAGVLESFIRGMAQAQTDAPRLEAPMLMLVGGADKIVDPGGSRTFFDHAPADLREEVWFGEGYHEIFNEAEPLRSKVFAALTDWLRRHLAQPV,not soluble
9,MSLKIKFKRLDYQEQCRDQILGVFKGIDLKEPENDAQRISNPVFEIGAIKDLLLENIENLRSKQKITQGSVGIDKSLNCDILMETGTGKTFCFLECVYALHKNHHLSKFIVLTPSNAIKLGVLKSVEITREFFKSEYSNTHLESYEDIERFILASNHKCCVLVMTFSAFNKEKNTINKSCLENTNLFNGATSYMQALVSMRPIVIMDEPHRFLGDKTKKYLEQLNALLTLRFGATFKDDYNNLIYTLDSKKAFDCALVKSISVASVGESNECFLELKGIEKKEAAINYTDLENKTQSVKVKEHDNLGVVTQISALEDYIVEKITKTEIRFLNGFNLLLDQKEPFSHLLEGEQEVMLKEAIKSHFEREEGLFKKGIKALCMVFISGVNSYLSENEKPAKLALLFEKLYQQKLEEVLKKPLDENYRAYLECTREDIKKVHGGYFAKSKKEGDETKTIELILKEKEKLLSFDSDLRFIFSQWALQEGWDNPNVMTICKLAPSHSNITKLQQIGRGLRLAVNDKGERITKEHADFDFVNELVVIVPQVEGDFVGAIQQEISEHSLIKQEFSAEELEKSGVVKKGRYGFLLETLEGLGFGEKTGDENFKLTLNQNEFLEKEPELEKLKDEKYLDFEKLKDFLKDRLIGNSRVRDKNERKSEKIKINKENFKKFETLWESLNHQARIAYAIDSESLIDEIVKNINSSFNVSSKIVSVTTHKKVETMGNNAKTEIFERENACVWSLHEFISALSNKVKLSFKSVAKVLENIDENKFNEIKKNEQEGLRRLEELFLEIIYQNIKDKISYQMRETTIKNRKNDAFYDEKGEIREFLDGSLGADKYEIKNSSVREKCLYENFMQVDSEIEKDTIEESNDTKIIVFGKLPRVKIPIGLNQTYSPDFGYVVENNDKKVLLVVETKGVDKKSELRPEEERKISTAKKFFEALKKQGVNIEYKTKMEKDQLSALINEVLNRKDEGHHHHHH,not soluble
10,MGSDKIHHHHHHMGVYHRIRVSRQTTTLPNIILTKKMIAAKDKAPQLTPQEYFIWEEQQLEKHEYINGEVYAMTGGSVNHGRIAIRFTAMFDSHLQNTGCITGNSDIKVNIFGSNNYTYPDASVTCDVRDQTTTQYITYPCLIVEVLSKTTEAYDRGGKFRMYRQNPALIDYLLVSSTSVEIDLYHKNDAGDWLIINYKPGDTIELKSINLNFPIEKVYRGLTLEPENGG,not soluble
11,MRGSHHHHHHTDPALRAASTFTSDTLPADHKAAIRQMKHALRAQLGDVQQIFNQLSDDIATRVAEINALKAQGDAVWPVLSYADIKAGHVTAEQREQIKRRGCAVIKGHFPREQALGWDQSMLDYLDRNRFDEVYKGPGDNFFGTLSASRPEIYPIYWSQAQMQARQSEEMANAQSFLNRLWTFESDGKQWFNPDVSVIYPDRIRRRPPGTTSKGLGAHTDSGALERWLLPAYQRVFANVFNGNLAQYDPWHAAHRTEVEEYTVDNTTKCSVFRTFQGWTALSDMLPGQGLLHVVPIPEAMAYVLLRPLLDDVPEDELCGVAPGRVLPVSEQWHPLLIEALTSIPKLEAGDSVWWHCDVIHSVAPVENQQGWGNVMYIPAAPMCEKNLAYAHKVKAALEKGASPGDFPREDYETNWEGRFTLADLNIHGKRALGMDVGLCGR,soluble
12,MTDHTMKKNPVSIPHTVWYADDIRRGEREAADVLGLTLYELMLRAGEAAFQVCRSAYPDARHWLVLCGHGNNGGDGYVVARLAKAVGIEVTLLAQESDKPLPEEAALAREAWLNAGGEIHASNIVWPESVDLIVDALLGTGLRQAPRESISQLIDHANSHPAPIVAVDIPSGLLAETGATPGAVINADHTITFIALKPGLLTGKARDVTGQLHFDSLGLDSWLAGQETKIQRFSAEQLSHWLKPRRPTSHKGDHGRLVIIGGDHGTAGAIRMTGEAALRAGAGLVRVLTRSENIAPLLTARPELMVHELTMDSLTESLEWADVVVIGPGLGQQEWGKKALQKVENFRKPMLWDADALNLLAINPDKRHNRVITPHPGEAARLLGCSVAEIESDRLHCAKRLVQRYGGVAVLKGAGTVVAAHPDALGIIDAGNAGMASGGMGDVLSGIIGALLGQKLSPYDAACAGCVAHGAAADVLAARFGTRGMLATDLFSTLQRIVNPEVTDKNHDESSNSAP,soluble

# Source: the DeepSol protein solubility set
